From patent publication US20240026022A1 (OSSIANIX, published 2024) come the findings set out here.

Assay [1] addresses T1, human TfR-1 on the cell surface (hCMEC/D3 and SY-SH5Y cells) (human, UniProt P02786 1-760).
T1 construct: whole, on cells; also called cell surface TfR1; cell-surface hTfR1
Kind of assay: flow cytometry on hCMEC/D3 cells, 1 h on ice, binding to cell surface TfR1. The method, then: Flow cytometry. hCMEC/D3 cells (Weksler 2013) were seeded onto V-bottom 96-well plates at a density of 1×10⁴ cells/well. After blocking in PBS containing 10% BSA (FACS buffer) for 20 min on ice, cells were incubated with serial dilutions of TXP1. Cells were stained with propidium iodine (PI; Biolegend) for 20 min on ice, followed by anti-hFc conjugated to Alexa488 diluted 1:300 (Jackson ImmunoResearch) for 30 min on ice. After fixation in 4% PFA for 15 min on ice, the cells were analyzed on a CytoFlex flow cytometer (Beckman Coulter). Gating of cells stained with secondary antibody established the fluorescence threshold for the negative signal. The fluorescence intensity of approximately 1000 cells per condition was measured. […] EC50 values were calculated using a four parametric non-linear regression model.
Functional activity of the fully deimmunised variants was assessed using the human endothelial cell line hCMEC/D3 and the human neuronal cell line SY-SH5Y. Binding to hCMEC/D3 cells was assessed by incubation with serial antibody dilutions for 1 h on ice to avoid internalisation. The cells were fixed and binding to cell surface TfR1 was measured by flow cytometry. […] Internalisation via cell-surface hTfR1 was assessed using the hCMEC/D3 and SY-SH5Y cell lines by incubation with the antibodies for 1 hour at 37° C.
(In flow cytometry, cells or beads pass a laser one at a time.)

The target in assay [2] is T2, recombinant human TfR-1 (transferrin receptor-1) (human, UniProt P02786 89-760).
T2 construct: extracellular domain; In-house purified recombinant protein; also called hTfR-1; hTfR1
In words: SPR. On the technique in general: SPR reads the build-up and loss of mass on a sensor chip optically.

Assay [3] deals with T3, recombinant cynomolgus TfR-1 (cynomolgus, UniProt H9EXL1 89-760 (rhesus entry)).
T3 construct: also called cTfR-1; cTfR1
In words: SPR.

The target in assay [4] is T2, recombinant human TfR-1 (transferrin …). In words: ELISA, plate coated with human TfR-1, anti-hFc HRP, 4-parameter fit; drawn table under the curves. On the procedure:
(§1) FIG. 15. Binding activity of TXP1 and deimmunized variants assessed by ELISA. Plates were coated with either human or cynomolgus or rat TfR-1. HSA was used as a negative control. Serial dilutions of TXP1 (a VNAR antibody) or the variants as Fc fusions were added to the plate and binding was measured by end-point ELISA upon incubation with secondary anti-hFc HRP-conjugated antibodies and visualization with TMB.
(§2) TfR-1 binding ELISA. Nunc MaxiSorp plates were coated with 100 μl of 1 μg/ml of in-house purified recombinant human, mouse, rat and cynomolgus TfR-1 and incubated at 4° C. overnight. Plates were incubated with blocking buffer (2.5% non-fat dry milk in PBST) for 1 h at RT. Serially-diluted TXP1 was mixed with non-fat dry milk in PBST to a final concentration of 2.5% and incubated for 30 min. Blocked TXP1 solutions (100 μl) were transferred to the blocked plates and incubated for 1 hr. Plates were washed with PBST and incubated with anti-hFc HRP-conjugated antibody diluted 1:5,000 (Sigma) in blocking buffer for 30 min. Plates were washed and developed with SureBlue™ TMB substrate, the reaction stopped with 1% HCl and absorbance measured at 450 nm.
(In general: In an ELISA, binding on a coated surface is turned into a signal by an enzyme label.)

Another assay deals with T4, recombinant rat TfR-1 (rat, UniProt Q99376 87-761, limits assumed).
T4 construct: also called rTfR-1
Kind of assay: ELISA, plate coated with recombinant rat TfR-1, detection with anti-hFc HRP and TMB. The method, then: (§3) FIG. 1. Cross-species reactivity of TXP1 assessed by ELISA. Plates were coated with either mouse, human, cynomolgus or rat TfR-1. HSA was used as a negative control. Serial dilutions of TXP1 (a VNAR antibody) were added to the plate and binding was measured by end-point ELISA upon incubation with secondary anti-hFc HRP-conjugated antibodies and visualization with TMB.
as §2

A further assay addresses T5, recombinant mouse TfR-1 (mouse, UniProt Q62351 89-763, limits assumed).
T5 construct: also called mTfR-1
In words: ELISA, plate coated with recombinant mouse TfR-1, detection with anti-hFc HRP and TMB. On the procedure:
as §3, §2

For assay [5], the target named is T1, human TfR-1 on the cell surface …. In words: flow cytometry on hCMEC/D3 cells, percent positive cells, on ice. The method, then:
FIG. 2. Binding of TXP1 to hCMEC/D3 cells by flow cytometry. Approximately 10,000 cells were incubated with serially diluted TXP1 for 1 hour on ice. TXP1 binding was detected using anti-human IgG Alexa488-conjugated secondary antibody. PI staining was used to exclude dead cells from the analysis. The cells were fixed and analyzed by flow cytometry. 1,000 cells per condition were acquired. Gating of cells stained with secondary antibody only allowed to set a fluorescence threshold for negative signal.
Flow cytometry. hCMEC/D3 cells (Weksler 2013) were seeded onto V-bottom 96-well plates at a density of 1×10⁴ cells/well. After blocking in PBS containing 10% BSA (FACS buffer) for 20 min on ice, cells were incubated with serial dilutions of TXP1. Cells were stained with propidium iodine (PI; Biolegend) for 20 min on ice, followed by anti-hFc conjugated to Alexa488 diluted 1:300 (Jackson ImmunoResearch) for 30 min on ice. After fixation in 4% PFA for 15 min on ice, the cells were analyzed on a CytoFlex flow cytometer (Beckman Coulter). Gating of cells stained with secondary antibody established the fluorescence threshold for the negative signal. The fluorescence intensity of approximately 1000 cells per condition was measured. Dead or dying cells were excluded from the analysis by propidium iodide staining. EC50 values were calculated using a four parametric non-linear regression model.

A further assay addresses T6, HSA (human, UniProt P02768 25-609).
T6 construct: Negative control
Kind of assay: ELISA, plate coated with HSA, detection with anti-hFc HRP and TMB. The method, then: as §3, §2

In assay [6] the target is T2, recombinant human TfR-1 (transferrin …). Kind of assay: ELISA on hTfR-1 captured by plate-coated human Tf (receptor already bound to Tf), detection with anti-hFc HRP and TMB. On the procedure: Competition ELISAs. For competition studies, MaxiSorp plates were coated with 100 μl of human Tf, at the concentration of 5 μg/ml overnight at 4° C. Plates were washed with phosphate-buffered saline containing 0.1% Tween20 (PBST) and blocked for 1 h with 2.5% BSA in PBST. Wells were incubated with 50 μl of hTfR-1 at 10 μg/ml for 1 h at RT and washed before adding serially diluted TXP1 and A06 VNAR antibodies for 1 h at RT. Following washing, 100 μl of 1:5,000 anti-hFc HRP-conjugated antibody (Sigma) diluted in 2.5% BSA in PBST was added and incubated for 1 h. Plates were washed and developed with SureBlue™ TMB substrate, the reaction stopped with 1% HCl and absorbance measured at 450 nm.
TXP1 competition with Tf for binding to TfR-1 was assessed by ELISA. Plates coated with Tf were used to capture hTfR-1 before incubation with serial dilutions of TXP1, A06 VNAR antibody or isotype control G12 VNAR antibody. While TXP1 and A06 VNAR antibody bind with similar nM KD in the absence of Tf (Table 5), when TfR-1 was bound to Tf, TXP1 but not the A06 VNAR antibody was still able to bind the receptor (FIG. 4).

Assay [7] has as its target T3, recombinant cynomolgus TfR-1. Kind of assay: ELISA, plate coated with cynomolgus TfR-1, anti-hFc HRP, 4-parameter fit; drawn table under the curves. The method, then:
as §1, §2

T2 sequence (P02786 89-760): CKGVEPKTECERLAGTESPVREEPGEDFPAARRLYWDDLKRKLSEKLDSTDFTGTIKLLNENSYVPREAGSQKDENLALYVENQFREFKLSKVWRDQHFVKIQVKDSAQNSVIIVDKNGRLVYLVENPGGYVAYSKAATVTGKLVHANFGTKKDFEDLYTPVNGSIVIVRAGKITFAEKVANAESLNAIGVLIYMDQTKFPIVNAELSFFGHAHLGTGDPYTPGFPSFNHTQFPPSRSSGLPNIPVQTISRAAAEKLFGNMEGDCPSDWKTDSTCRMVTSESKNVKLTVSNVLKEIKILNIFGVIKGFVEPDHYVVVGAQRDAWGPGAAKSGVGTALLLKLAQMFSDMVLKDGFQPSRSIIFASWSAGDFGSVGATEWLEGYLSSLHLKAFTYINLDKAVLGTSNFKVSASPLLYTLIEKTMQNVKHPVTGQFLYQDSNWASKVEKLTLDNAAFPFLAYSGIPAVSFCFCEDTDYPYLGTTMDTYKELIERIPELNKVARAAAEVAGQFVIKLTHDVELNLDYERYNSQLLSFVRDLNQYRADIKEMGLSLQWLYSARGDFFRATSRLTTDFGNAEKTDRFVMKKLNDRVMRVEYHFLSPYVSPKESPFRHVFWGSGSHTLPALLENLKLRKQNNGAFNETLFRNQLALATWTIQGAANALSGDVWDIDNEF
T3 sequence (chain, as listed by the source): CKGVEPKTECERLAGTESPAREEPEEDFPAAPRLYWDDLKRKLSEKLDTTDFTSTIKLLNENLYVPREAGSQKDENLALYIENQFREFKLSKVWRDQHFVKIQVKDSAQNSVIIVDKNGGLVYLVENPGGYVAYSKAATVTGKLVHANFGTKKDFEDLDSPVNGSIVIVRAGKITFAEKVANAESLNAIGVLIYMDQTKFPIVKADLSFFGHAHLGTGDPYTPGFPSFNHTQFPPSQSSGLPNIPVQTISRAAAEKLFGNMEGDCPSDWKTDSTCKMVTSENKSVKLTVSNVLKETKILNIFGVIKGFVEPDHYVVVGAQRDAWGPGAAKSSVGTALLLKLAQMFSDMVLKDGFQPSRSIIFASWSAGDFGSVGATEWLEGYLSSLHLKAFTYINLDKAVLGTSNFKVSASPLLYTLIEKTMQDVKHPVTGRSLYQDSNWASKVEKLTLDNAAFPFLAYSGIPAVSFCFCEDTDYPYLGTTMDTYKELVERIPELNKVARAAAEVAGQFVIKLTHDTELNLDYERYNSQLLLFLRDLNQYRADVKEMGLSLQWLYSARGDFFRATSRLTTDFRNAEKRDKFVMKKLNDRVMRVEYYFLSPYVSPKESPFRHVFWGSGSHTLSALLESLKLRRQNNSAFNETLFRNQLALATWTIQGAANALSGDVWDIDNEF
T1 sequence (P02786 whole entry): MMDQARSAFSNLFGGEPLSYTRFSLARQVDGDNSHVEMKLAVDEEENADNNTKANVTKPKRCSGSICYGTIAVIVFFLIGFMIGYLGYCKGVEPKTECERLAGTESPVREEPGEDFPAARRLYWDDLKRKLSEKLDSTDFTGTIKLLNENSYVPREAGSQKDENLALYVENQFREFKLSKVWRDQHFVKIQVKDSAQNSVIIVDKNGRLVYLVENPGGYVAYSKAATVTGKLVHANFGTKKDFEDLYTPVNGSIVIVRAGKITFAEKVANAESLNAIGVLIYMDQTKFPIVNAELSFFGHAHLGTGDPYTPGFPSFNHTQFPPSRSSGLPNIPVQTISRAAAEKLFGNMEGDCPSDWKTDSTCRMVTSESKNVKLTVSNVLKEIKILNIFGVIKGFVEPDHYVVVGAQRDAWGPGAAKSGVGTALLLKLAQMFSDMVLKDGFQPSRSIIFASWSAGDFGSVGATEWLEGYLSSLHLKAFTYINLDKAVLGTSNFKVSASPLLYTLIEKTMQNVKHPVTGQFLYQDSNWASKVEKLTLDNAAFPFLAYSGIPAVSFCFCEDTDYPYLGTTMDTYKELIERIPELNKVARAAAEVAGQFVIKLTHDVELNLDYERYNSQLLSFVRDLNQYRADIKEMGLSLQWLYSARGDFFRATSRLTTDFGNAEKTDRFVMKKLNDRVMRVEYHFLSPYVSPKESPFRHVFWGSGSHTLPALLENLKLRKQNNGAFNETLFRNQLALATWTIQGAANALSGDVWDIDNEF
T6 sequence (P02768 25-609): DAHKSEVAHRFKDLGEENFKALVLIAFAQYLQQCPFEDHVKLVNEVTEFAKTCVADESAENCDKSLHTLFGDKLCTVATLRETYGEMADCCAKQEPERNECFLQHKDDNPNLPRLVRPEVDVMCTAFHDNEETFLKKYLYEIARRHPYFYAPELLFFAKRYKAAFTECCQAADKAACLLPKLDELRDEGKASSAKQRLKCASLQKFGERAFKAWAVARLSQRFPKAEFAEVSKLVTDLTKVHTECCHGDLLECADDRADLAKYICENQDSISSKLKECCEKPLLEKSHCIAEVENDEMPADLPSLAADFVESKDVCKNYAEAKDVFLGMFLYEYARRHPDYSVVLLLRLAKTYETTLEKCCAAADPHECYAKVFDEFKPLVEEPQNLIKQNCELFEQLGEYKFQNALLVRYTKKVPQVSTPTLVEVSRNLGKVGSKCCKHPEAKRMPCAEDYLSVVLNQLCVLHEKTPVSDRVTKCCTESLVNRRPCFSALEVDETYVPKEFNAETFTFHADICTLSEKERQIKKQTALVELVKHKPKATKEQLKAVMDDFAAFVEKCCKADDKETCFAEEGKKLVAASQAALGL
T5 sequence (Q62351 89-763 limits assumed): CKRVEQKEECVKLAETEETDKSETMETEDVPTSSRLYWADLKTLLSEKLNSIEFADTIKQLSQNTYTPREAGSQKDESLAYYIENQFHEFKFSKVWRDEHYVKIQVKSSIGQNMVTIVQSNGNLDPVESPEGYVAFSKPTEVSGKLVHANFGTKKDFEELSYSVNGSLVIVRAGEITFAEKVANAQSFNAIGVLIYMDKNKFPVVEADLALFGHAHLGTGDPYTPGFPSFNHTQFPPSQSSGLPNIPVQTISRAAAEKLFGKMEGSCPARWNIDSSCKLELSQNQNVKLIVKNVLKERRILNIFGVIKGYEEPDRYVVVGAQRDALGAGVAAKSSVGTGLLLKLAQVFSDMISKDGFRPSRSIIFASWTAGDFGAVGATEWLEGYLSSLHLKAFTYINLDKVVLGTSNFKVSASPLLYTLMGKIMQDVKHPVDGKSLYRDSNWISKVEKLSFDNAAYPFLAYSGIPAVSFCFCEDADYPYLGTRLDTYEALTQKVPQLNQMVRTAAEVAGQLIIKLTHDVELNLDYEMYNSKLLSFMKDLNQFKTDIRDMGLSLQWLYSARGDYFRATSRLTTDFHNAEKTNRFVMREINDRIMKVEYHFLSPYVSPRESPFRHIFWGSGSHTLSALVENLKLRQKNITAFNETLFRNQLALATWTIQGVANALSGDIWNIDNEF
T4 sequence (Q99376 87-761 limits assumed): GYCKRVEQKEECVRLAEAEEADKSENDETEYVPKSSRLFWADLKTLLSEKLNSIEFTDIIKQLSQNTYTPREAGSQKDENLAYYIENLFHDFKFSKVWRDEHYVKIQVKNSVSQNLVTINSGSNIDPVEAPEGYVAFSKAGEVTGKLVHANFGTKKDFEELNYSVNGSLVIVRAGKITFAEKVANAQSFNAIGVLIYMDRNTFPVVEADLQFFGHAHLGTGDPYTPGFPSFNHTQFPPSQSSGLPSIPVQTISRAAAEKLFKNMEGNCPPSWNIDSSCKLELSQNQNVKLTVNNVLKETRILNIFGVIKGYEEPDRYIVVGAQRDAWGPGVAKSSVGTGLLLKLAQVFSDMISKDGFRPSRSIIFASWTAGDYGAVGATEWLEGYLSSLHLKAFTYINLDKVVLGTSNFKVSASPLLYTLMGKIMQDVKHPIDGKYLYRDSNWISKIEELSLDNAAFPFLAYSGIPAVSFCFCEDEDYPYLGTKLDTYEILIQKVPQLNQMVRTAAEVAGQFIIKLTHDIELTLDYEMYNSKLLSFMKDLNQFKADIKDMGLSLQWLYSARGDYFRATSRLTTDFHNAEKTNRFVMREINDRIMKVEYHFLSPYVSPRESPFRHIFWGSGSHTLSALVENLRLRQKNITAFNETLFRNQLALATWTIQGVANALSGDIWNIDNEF

B1: TXP1D4 (deimmunized variant VNAR-r2d4 fused to human IgG1 Fc) (Fc fusion)
VNAR: ARVDQTPQTATKETGESLTINCVLRDSNCALSSTYWYRKKSGSTNEENISKGGRKYVETVESGSKSFSLKINDLTVEDSGTYRCNVVGTWCMSWRDVSGDGTVVTVNA
notes: also called VNAR-r2d4-Fc; not shown: Human IgG1 AEF Fc and any hinge or linker at the junction
A word on the EC50: it is the concentration giving half of the maximal effect. As a reminder, the Kd is a measure of binding affinity in units of concentration. As usually defined, the koff is the first-order rate constant of dissociation. As usually defined, the kon is a measure of how fast the partners come together. With B1, a half-maximal response in assay [1] (EC50) required 2.1 nM. For the same molecule, in [2], the Kd is 3 nM, the koff turned out to be 0.00026 s⁻¹ and the kon turned out to be 87000 M⁻¹ s⁻¹. In assay [3], the Kd worked out at 1.7 nM, the koff amounted to 0.00014 s⁻¹ and the kon amounted to 87000 M⁻¹ s⁻¹.

B2: TXP1 (VNAR-txp1 fused to the N-terminus of human IgG1 Fc with attenuated effector function) (Fc fusion)
VNAR: ARVDQTPQTITKETGESLTINCVLRDSNCALSSTYWYRKKSGSTNEENISKGGRYVETVNSGSKSFSLKINDLTVEDSGTYRCNVVGTWCMSWRDVYGGGTAVTVNA
notes: Bivalent VNAR-hFc, VNAR at the N-terminus of hFc IgG1; also called VNAR-txp1-hFc; VNAR antibody TXP1; not shown: Human IgG1 Fc with AEF mutations (E233P/L234V/L235A/ΔG236+A327G/A330S/P331S), and any hinge or linker at the junction
For orientation: EC50 (read off the curve) means the midpoint of the concentration-response curve. In the case of B2, the figures for the EC50 in assay [4], in assay [5] and in assay [7] were 2.9 nM, 10.1 nM and 3.3 nM, respectively. Further, the binding result with recombinant rat TfR-1, with recombinant mouse TfR-1 and with HSA was “no binding (tested: about 2e-6 M)” throughout. In addition, the “EC50 (read off the curve)” value in [6] was about 10 nM.
